Several values for one entry are separate records, joined by “and”; a condition that tells them apart may be missing. Identical values can stand only once.
Assays:
[1] = biological target: human CD276 protein (human) (UniProt Q5ZPR3); assay: cell-based or functional assay
[2] = biological target: human CD276 protein (human) (UniProt Q5ZPR3); assay: FACS on SKOV3 cells

human CD276 protein (human), sequence (Q5ZPR3 29-534): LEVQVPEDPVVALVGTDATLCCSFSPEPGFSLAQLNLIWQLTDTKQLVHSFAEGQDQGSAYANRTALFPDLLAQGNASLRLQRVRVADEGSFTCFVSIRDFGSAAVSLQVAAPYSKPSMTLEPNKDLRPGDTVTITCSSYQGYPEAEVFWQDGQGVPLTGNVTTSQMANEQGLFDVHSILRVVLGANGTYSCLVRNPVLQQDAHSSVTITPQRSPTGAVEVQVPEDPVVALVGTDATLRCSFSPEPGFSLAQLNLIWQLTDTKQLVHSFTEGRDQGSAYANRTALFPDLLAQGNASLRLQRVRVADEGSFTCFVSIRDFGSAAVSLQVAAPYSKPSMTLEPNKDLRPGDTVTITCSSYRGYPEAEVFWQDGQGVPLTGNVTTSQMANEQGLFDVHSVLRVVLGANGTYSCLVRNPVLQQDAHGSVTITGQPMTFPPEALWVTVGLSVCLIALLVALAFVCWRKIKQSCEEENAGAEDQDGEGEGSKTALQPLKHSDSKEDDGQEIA

Row | EC50 of antibody induced CDC effect [1] | MFI (Max) [2] | Substance | Top cytotoxicity (%), CDC [1]
1 | 8.91 nM and 9.64 nM |  | MGA271-WT Fc (antibody) | 19.6% and 19.8%
2 |  | 115 | igG (antibody) | 

From US20240400689A1
